Results on 2 sequences are retold here after publication PMC4900677.

This data set has as its system T1, IFI16 (Homo sapiens), Q16666-2.
T1 sequence: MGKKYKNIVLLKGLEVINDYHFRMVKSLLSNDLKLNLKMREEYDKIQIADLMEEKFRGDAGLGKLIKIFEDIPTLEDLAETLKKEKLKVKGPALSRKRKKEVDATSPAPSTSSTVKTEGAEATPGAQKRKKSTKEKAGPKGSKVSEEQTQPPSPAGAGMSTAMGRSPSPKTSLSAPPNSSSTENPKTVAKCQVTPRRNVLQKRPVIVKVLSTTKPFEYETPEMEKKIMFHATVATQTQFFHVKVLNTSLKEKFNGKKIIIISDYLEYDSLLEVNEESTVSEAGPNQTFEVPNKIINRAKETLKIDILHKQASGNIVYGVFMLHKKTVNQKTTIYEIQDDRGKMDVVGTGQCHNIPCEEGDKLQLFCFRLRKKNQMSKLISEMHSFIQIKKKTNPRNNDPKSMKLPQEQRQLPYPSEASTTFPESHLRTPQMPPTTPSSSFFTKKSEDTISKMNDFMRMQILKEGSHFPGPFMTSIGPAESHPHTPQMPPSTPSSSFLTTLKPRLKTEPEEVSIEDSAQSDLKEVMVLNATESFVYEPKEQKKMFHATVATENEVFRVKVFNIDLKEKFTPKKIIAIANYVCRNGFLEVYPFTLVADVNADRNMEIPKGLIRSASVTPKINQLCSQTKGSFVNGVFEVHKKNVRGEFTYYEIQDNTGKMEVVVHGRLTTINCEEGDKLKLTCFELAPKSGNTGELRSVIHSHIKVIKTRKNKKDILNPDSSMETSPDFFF
The experiment in a line: EMSA. Particulars: EMSA: 5 mM Tris-HCl pH 7.0, 1 mM EDTA, 50 mM KCl, 0.01% Triton X-100, 4 C, 15 min; gel 0.33x TBE (native PAGE with 50 mM KCl).

For the sequence “GGGTTAGGGTTAGGGTTAGGGTTAGGGTTAGGGTTAGGGTTAGGGTTAGGG (double strand) [DS HTEL]”, the binding signal (% bound at protein:DNA 4:1) worked out at 50.

Regarding “TTGGGGCGCTTATGGGGAGGGTGGGGAGGGTGGGGAAGGTGGGGAGGAGACT (double strand) [DS NHEIII]”, the binding signal (% bound at protein:DNA 4:1) is 50.
